From US20100151573A1 (published 2010)

Tests used:
[1] = target: T1, Recombinant human P-selectin/Fc chimera covalently coupled to DSPE-PEG2000 maleimide and inserted into … (human, UniProt P16109 42-771, sulfhydryl groups introduced at primary amines with Traut's reagent (2-iminothiolane) and linked to the maleimide group of DSPE-PEG2000; positions not stated); experiment: perfusion of HL60 cells through nanoparticle coated microtube, microscopy
T1 construct: Bought rhP/Fc (R&D Systems); also called rhP/Fc-DSPE-PEG2000 maleimide; PS-DSPE-PEG NP; Fc part of the bought chimera not given
T1 sequence (looked up): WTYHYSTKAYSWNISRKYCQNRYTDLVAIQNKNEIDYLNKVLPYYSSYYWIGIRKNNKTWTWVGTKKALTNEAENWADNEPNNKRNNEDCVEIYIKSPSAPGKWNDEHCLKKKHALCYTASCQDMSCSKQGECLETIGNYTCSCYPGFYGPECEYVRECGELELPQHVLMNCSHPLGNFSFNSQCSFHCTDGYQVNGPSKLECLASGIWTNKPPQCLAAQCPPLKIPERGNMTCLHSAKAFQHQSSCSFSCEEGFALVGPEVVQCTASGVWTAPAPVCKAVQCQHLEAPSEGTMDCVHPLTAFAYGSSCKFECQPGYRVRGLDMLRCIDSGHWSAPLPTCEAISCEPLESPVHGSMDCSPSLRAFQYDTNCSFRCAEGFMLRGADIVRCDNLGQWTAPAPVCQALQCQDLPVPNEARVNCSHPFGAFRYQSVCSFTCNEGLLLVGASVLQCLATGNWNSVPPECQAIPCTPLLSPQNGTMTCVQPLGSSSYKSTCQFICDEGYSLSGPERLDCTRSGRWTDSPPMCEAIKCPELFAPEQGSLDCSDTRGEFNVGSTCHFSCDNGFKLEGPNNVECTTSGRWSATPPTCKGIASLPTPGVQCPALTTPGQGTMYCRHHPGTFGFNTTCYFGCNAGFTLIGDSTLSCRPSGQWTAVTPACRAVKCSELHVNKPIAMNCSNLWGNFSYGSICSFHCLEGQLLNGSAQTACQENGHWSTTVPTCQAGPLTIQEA
Protocol: P-selectin nanoparticles were coated onto the surface of microrenathane tubing for 2 h at RT, and then perfusion experiments conducted. (a) and (b) were taken before perfusion, (c) and (d) were taken after perfusion but before the cells were released. (e) and (f) were taken after the adherent cells were released from the microtubing. In (g) and (h), HL60 cells were perfused through the P-selectin coated tube. In (i) and (j), cells were pre-incubated with anti-PSGL-1 for 1 h at RT and then perfused through the P-selectin coated tube. In (k) and (l), the perfused cells were MCF7. In (m) and (n), the P-selectin nanoparticles were incubated with anti-P-selectin for 1 h at RT and then applied to the microtube coating. In (o) and (p), P-selectin was replaced with IgG to construct the coating nanoparticles. The pictures were taken after cellular perfusion but before the cells were released from the surface. [III]. Nanoparticles alone could not (q, r, s) but P-selectin nanoparticles could (t, u, v) deliver Cy3-siRNA into HL60 cells under rolling conditions in the microtubing. q and t were taken in epifluorescence mode, r and u were taken in brightfield mode, and s and v are the merge of q and r, and […]. TRITC represents Tetramethyl Rhodamine Iso-Thiocyanate filter. […]

[2] = target: T2, Recombinant human P-selectin/Fc chimera (rhP/Fc), not conjugated, adsorbed on microtubing (human, UniProt P16109 42-771); experiment: perfusion of HL60 cells through rhP/Fc coated microtube
T2 construct: Microtubing pre-incubated with rhP/Fc at 60 ug/ml in PBS for 2 h, then coated with non-targeting nanoparticles; Fc part of the bought chimera not given
T2 sequence (looked up): T1 sequence (looked up)

B1: P-selectin glycoprotein ligand-1 (PSGL-1) on HL60 cells (receptor, UniProt Q14242 42-412, looked up)
chain: QATEYEYLDYDFLPETEPPEMLRNSTDTTPLTGPGTPESTTVEPAARRSTGLDAGGAVTELTTELANMGNLSTDSAAMEIQTTQPAATEAQTTQPVPTEAQTTPLAATEAQTTRLTATEAQTTPLAATEAQTTPPAATEAQTTQPTGLEAQTTAPAAMEAQTTAPAAMEAQTTPPAAMEAQTTQTTAMEAQTTAPEATEAQTTQPTATEAQTTPLAAMEALSTEPSATEALSMEPTTKRGLFIPFSVSSVTHKGIPMAASNLSVNYPVGAPDHISVKQCLLAILILALVATIFFVCTVVLAVRLSRKGHMYPVRNYSPTEMVCISSLLPDGGEGPSATANGGLSKAKSPGLTPEPREDREGDDLTLHSFLP
notes: whole, on cells; also called P-selectin receptor; PSGL-1 receptors in HL60 cells
[1]
  binding result: binds
[2]
  binding result: binds
